B1: CPXM2 (parent)
chain: EILGCPLPDPNNYYHRRNEMTTTD

Variants of: B1
Experiment: protein stability index of a GFP-peptide fusion (GPS, HEK-293T) (PSI 1-6); higher = more stable
Details: c terminus: a fixed tail appended
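Note: lentivirally expressed fusions sorted by FACS into six bins by GFP to DsRed ratio, PSI derived from sequencing read proportions per bin multiplied by bin number.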

Protein stability index, by site and new letter:
N18: Q 3.7, W 2.16, T 3.6, D 4.23, I 2.79, F 2.41, H 3.37, E 4.01, P 3.21, L 2.51, Y 2.67, M 2.91, V 2.77, A 3.3, G 3.77, R 3.19, S 3.26, K 3.57, C 3.59
M20: C 3.69, D 4.35, P 3.92, W 3.12, H 3.69, N 3.92, S 3.98, A 3.99, L 2.95, T 4.6, Q 4.42, E 4.59, F 2.98, V 3.7, R 3.57, G 4.6, K 3.53, I 3.69, Y 2.46
R17: D 4.64, I 3.35, P 4.15, E 4.43, K 3.62, S 3.88, Y 2.85, L 2.7, T 4.19, C 2.98, W 2.63, N 4.04, G 3.79, H 3.3, F 2.48, M 3.8, Q 4.02, A 3.78, V 3.22
E19: T 2.95, H 3.1, N 3.3, Y 2.6, K 2.83, L 2.22, G 3.59, C 2.8, I 2.19, M 2.48, V 2.71, R 3.16, A 2.89, W 2.09, Q 3.31, S 3.46, F 2.62, P 2.86, D 3.62
T21: G 3.55, L 2.97, W 1.65, M 3.23, N 3.45, E 4.27, H 2.91, Q 3.6, C 2.92, P 3.08, A 3.6, I 2.77, F 2.77, R 3.05, S 3.52, K 4.37, D 4.25, Y 2.81
Y13: V 4.03, Q 4.06, T 4.35, W 2.9, S 3.86, R 4.04
T22: G 3.56, H 3.51, K 3.54, C 3.15, E 4.39, I 2.81, A 3.15, L 2.69, F 2.77, D 4.09
Y14: W 3.75, K 3.88, V 3.81, H 3.84, M 3.57, A 4.18, I 3.46, D 4.31, S 4.38, G 4.13, F 3.69, C 4.04, P 4.41, N 4.17, E 4.59, R 3.92, L 3.68, Q 3.96, T 4.29
R16: F 2.71, S 4.14, N 3.82, M 3.48, T 3.48, L 3.28, A 3.84, G 4, Y 2.83, H 3.56, V 3.19, D 3.98, I 3.21, C 3.15, W 2.76, P 3.55, Q 4.03, K 3.52, E 3.94
H15: N 3.68, I 3.52, S 3.56, F 3.33, C 2.71, G 3.88, A 3.71, T 3.76, K 3.76, P 3.64, W 2.91, Y 3.16, E 3.62, M 3.23, L 3.21, R 3.31, D 4.42, V 3.1, Q 3.96

From the supplement of paper PMC10567573
